Source: patent publication US20200277375A1 (ULTRAHUMAN FOUR, published 2020)
Substitutions are numbered along the chain they refer to. Names may count otherwise. Values belong to the binder of their own block, whether it stands above or below them.

What was measured:
[1] = biological target: T1, cynomolgus monkey CD47-Fc (cynomolgus monkey, UniProt A0A2K5X523 19-139); experiment: direct specificity ELISA, IgG 1 µg/ml, FIG. 5
T1 construct: Recombinant CD47-Fc; also called cyno CD47-Fc; cCD47-Fc; not shown: Fc part
Text: (§1) FIG. 5A-FIG. 5G. Binding specificity analyses for prioritized lead clones. Off-target homologue binding risk for mVH/mVL in IgG1 (FIG. 5A) and IgG1null (FIG. 5B) format and library-derived leads A-D5 (FIG. 5C), VH-A1/VL-B1 (FIG. 5D), F-E7 (FIG. 5E), D-H3 (FIG. 5F), and G-B6 (FIG. 5G) in IgG1null format was examined by direct ELISA on CD47-Fc orthologs and a panel of 14 human immunoglobulin superfamily proteins as labelled on each X-axis (“B” refers to blank). Binding to human, cyno and murine CD47-Fcs (h/c/mCD47-Fc) was performed at an IgG concentration of 1 μg/ml. Binding to all other proteins was performed at an IgG concentration of 10 μg/ml.
(§2) To ensure that that lead clones had not suffered from loss of target specificity during the mutation and reselection process; lead and control IgG1 clones were tested for binding to a panel of 14 purified human proteins from the immunoglobulin superfamily (FIG. 5).

[2] = biological target: T2, human CD47-Fc (human, UniProt Q08722 19-139); experiment: direct specificity ELISA, IgG 1 µg/ml, FIG. 5
T2 construct: Recombinant CD47-Fc; also called hCD47-Fc; not shown: Fc part
Text: as §1, §2

[3] = biological target: T3, human CD47 on cells (human CD47-transfected CHO-K1; HL60) (human, UniProt Q08722 19-323); experiment: flow cytometry, human CD47-transfected CHO-K1, FIG. 6
T3 construct: whole, on cells; also called human CD47+ cells; human CD47+HL60 cells
Procedure: (§3) FIG. 6A-FIG. 6C. Flow cytometric binding to human and cyno CD47+CHO-K1 cells. Commercial anti-CD47 antibody MS1991, human IgG1 (“I IgG1”) and IgG4 (“I IgG4”) Isotype controls, lead library-derived IgGs in both IgG1null (“IgG1N”) and IgG4(S228P) formats were examined for specific binding on cyno-transfected CHO-K1 cells (FIG. 6A), human-transfected CHO-K1 cells (FIG. 6B), and wild type (wt, i.e. untransfected) CHO-K1 cells (FIG. 6C). IgGs were tested at concentrations ranging from 24-100,000 ng/ml. Concentration-dependent binding was observed against both human and cyno cell lines for all CD47-specific antibodies but not Isotype controls.
(§4) Antibodies to CD47 were analysed for concentration-dependent binding at the cell surface via flow cytometry. CHO-K1 cells were stably transfected with either human, mouse or cyno CD47 full-length cDNAs. Anti-CD47 IgGs mVH/mVL, VH-A1/VL-B1, A-D5, G-B6, F-E7 and D-H3, and an isotype control IgG1 were then all tested in IgG1null and IgG4(S228P) formats, alongside a commercial mouse anti-human CD47 monoclonal MS1991, over a concentration range of 100,000-24 ng/ml for binding to human, cyno or wild type control (‘wt’, i.e. untransfected) CHO-K1.

[4] = biological target: T4, cynomolgus monkey CD47 on transfected CHO-K1 cells (cynomolgus monkey, UniProt A0A5F8AK49 19-323 (rhesus entry)); experiment: flow cytometry, cyno CD47-transfected CHO-K1, FIG. 6
T4 construct: whole, on cells; also called cyno CD47+ cells
Procedure: as §3, §4

[5] = biological target: T5, mouse CD47-Fc (mouse, UniProt Q61735 19-140, limits assumed); experiment: direct titration ELISA on coated CD47-Fc, FIG. 3
T5 construct: Recombinant CD47-Fc; also called mCD47-Fc; mCD37-Fc [sic]; not shown: Fc part
T5 sequence (looked up): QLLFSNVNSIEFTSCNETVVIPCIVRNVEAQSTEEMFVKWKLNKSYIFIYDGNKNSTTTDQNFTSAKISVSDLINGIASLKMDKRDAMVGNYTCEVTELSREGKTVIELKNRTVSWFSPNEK
Procedure: (§5) FIG. 3A-FIG. 3H. Direct titration ELISA for IgG binding to human, mouse and cyno CD47-Fc proteins. Chimeric anti-CD47 (mVH/mVL), library-derived clones in human IgG1 null format were titrated (in μg/ml) in a direct binding ELISA against human, mouse and cyno CD47-Fc proteins (FIG. 3A-FIG. 3H). […] Clone TTP lost almost all binding function.
(§6) To coat Greiner Bio-One High bind ELISA plates, target proteins were diluted to 1 μg/ml in carbonate buffer and added at 100 μl per well, at 4° C., o/n. Coated plates were washed 3× with PBS pH7.4, blocked with 1% BSA in PBS (380 μl/well) for 1 hr at RT, then washed 3× with PBS-Tween 20 (PBST). CD47 antibodies (100 μl/well; diluted in PBST) were then added and then incubated 1 hr at RT. Plates were then washed 3× with PBST and goat anti-human kappa chain-HRP added (100 μl/well) at RT, for 1 hr. Plates were then washed 3× with PBST and twice with PBS before the addition of 100 μl TMB per well. Reactions were stopped by adding 100 μl 2M H₂SO₄/well and OD was read on a plate reader at 450 nm.

[6] = biological target: T1, cynomolgus monkey CD47-Fc; experiment: direct specificity ELISA, IgG 10 µg/ml, FIG. 13
[7] = biological target: T2, human CD47-Fc; experiment: direct specificity ELISA, IgG 10 µg/ml, FIG. 13
[8] = biological target: T5, mouse CD47-Fc; experiment: direct specificity ELISA, IgG 10 µg/ml, FIG. 13
[9] = biological target: T2, human CD47-Fc; experiment: direct titration ELISA, FIG. 3
Procedure: as §5, §6

[10] = biological target: T5, mouse CD47-Fc; experiment: direct titration ELISA, FIG. 3
Procedure: as §5, §6

[11] = biological target: T2, human CD47-Fc; experiment: direct titration ELISA, FIG. 9A
Procedure: (§7) FIG. 9A-FIG. 9C. Direct titration ELISA for designer IgGs binding to human, mouse and cyno CD47-Fc proteins. Chimeric anti-CD47 (mVH/mVL), designer A-D5-derived clones in human IgG1null format were titrated (in μg/ml) in a direct binding ELISA against human (FIG. 9A), cyno (FIG. 9B) and mouse (FIG. 9C) CD47-Fc proteins. […] In the figure legend, “IgG1NI” refers to IgG1 null isotype.
as §6

[12] = biological target: T5, mouse CD47-Fc; experiment: direct titration ELISA, FIG. 9C
Procedure: as §7, §6

[13] = biological target: T2, human CD47-Fc; experiment: direct titration ELISA, FIG. 18A
Procedure: (§8) FIG. 18A-FIG. 18C. Direct titration ELISA for A-D5.16 and A-D5.16-DI designer IgGs binding to human, mouse and cyno CD47-Fc proteins. Chimeric anti-CD47 (mVH/mVL), designer A-D5.16 and A-D5.16-DI clones in human IgG1null format were titrated (in μg/ml) in a direct binding ELISA against human (FIG. 18A), cyno (FIG. 18B) and mouse (FIG. 18C) CD47-Fc proteins.
as §6

[14] = biological target: T5, mouse CD47-Fc; experiment: direct titration ELISA, FIG. 18C
Procedure: as §8, §6

[15] = biological target: T1, cynomolgus monkey CD47-Fc; experiment: direct titration ELISA (FIG. 11) or CD47-SIRPα competition ELISA (FIG. 12)
Procedure: as §6
(§9) A competition ELISA assay was established to examine the capacity of optimized leads to block the binding interaction of CD47 with SIRPα. To coat Greiner Bio-One High bind ELISA plates, 10 μg/ml human SIRPα-Fc in carbonate coating buffer was added at 100 μl per well, at 4° C., o/n. Coated plates were washed 3× with PBS pH7.4, blocked with 1% BSA in PBS (380 μl/well) for 1 hr at RT, then washed 3× with PBS-Tween 20 (PBST). Biotinylated human, mouse or cyno CD47-Fc was then added at 0.2 μg/ml in PBS, 100 μl per well, at room temperature for 60 minutes with or without the addition of competing IgGs. Plates were then washed 3× with PBST and Streptavidin-HRP added (100 μl/well) at room temperature, for 1 hr. Plates were then washed 3× with PBST and twice with PBS before the addition of 100 μl TMB per well. Reactions were stopped by adding 100 μl 2M H₂SO₄/well and OD was read on a plate reader at 450 nm.

[16] = biological target: T2, human CD47-Fc; experiment: as above
Procedure: as §6, §9

[17] = biological target: T5, mouse CD47-Fc; experiment: as above
Procedure: as §6, §9

[18] = biological target: T5, mouse CD47-Fc; experiment: direct specificity ELISA, IgG 1 µg/ml, FIG. 5A
Text: as §1, §2

B1: VH-A1/VL-B1 in human IgG1null format (antibody, V domains shown)
VH: EVQLVQSGAEVKKPGESLKISCKGSGYSFTNYYIFWVRQMPGKGLEWMGIINPVDGDTRYSPSFQGQVTISADKSISTAYLQWSSLKASDTAMYYCARGGFTMDYWGQGTLVTVSS
VL: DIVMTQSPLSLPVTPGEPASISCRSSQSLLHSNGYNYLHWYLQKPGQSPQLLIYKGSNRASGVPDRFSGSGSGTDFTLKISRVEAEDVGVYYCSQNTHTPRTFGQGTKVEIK
notes: Combines the two most humanized observed v-domains; IgG1null (L234A/L235A/G237A), kappa; also called VH-A1/VI-B1
OD450 nm [1]: > 2 OD450 nm | OD450 nm [2]: > 2 OD450 nm | maximum MFI, fold over untransfected CHO-K1 [3]: > 10 fold | maximum MFI, fold over untransfected CHO-K1 [4]: > 10 fold | binding result [5]: no binding

B2: A-D5.4 in human IgG1null format (antibody, V domains shown)
VH: B1 VH with S28T, R59N, S61N, F101Y, Y105R
VL: DIVMTQSPLSLPVTPGEPASISCRSSQSLLHSNGYNYLHWYLQKPGQSPQLLIYKVSNRLSGVPDRFSGSGSGTDFTLKISRVEAEDVGVYYCFQNTHTPRTFGQGTKVEIK
notes: Designer clone from A-D5; IgG1null; also called A-D.4
OD450 nm [6]: > 2 OD450 nm | OD450 nm [7]: > 2 OD450 nm | OD450 nm [8]: > 2 OD450 nm

B6: A-D5.16 in human IgG1null format (antibody, V domains shown)
VH: B1 VH with F101Y, Y105R
VL: B2 VL with N33A
notes: Designer clone from A-D5.4; IgG1null; also called A-D.16
OD450 nm [6]: > 2 OD450 nm | OD450 nm [7]: > 2 OD450 nm | OD450 nm [8]: > 2 OD450 nm | fold reduction in potency versus A-D5 and mVL/mVH [15]: ~3 fold | fold reduction in potency versus A-D5 and mVL/mVH [16]: ~3 fold | fold reduction in potency versus A-D5 and mVL/mVH [17]: ~3 fold

Now from value to binder:

binding result [9]: binds | binding result [10]: binds
B3: MH (Maximally Humanized) in human IgG1null format (antibody, V domains shown)
VH: B1 VH with M48I, F101Y, Y105I
VL: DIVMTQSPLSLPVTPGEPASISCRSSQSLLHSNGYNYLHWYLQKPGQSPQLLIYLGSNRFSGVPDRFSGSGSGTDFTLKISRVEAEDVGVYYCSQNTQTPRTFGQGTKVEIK
notes: Designer clone; IgG1null, kappa; also called designer clone MH

binding result [11]: binds | binding result [12]: binds
B4: A-D5.8 in human IgG1null format (antibody, V domains shown)
VH: B1 VH with S28T, R59N, S61N, F101Y, Y105R
VL: B2 VL with N33Q, N36T
notes: Designer clone from A-D5; IgG1null

binding result [13]: binds | binding result [14]: binds
B5: A-D5.16-DI in human IgG1null format (antibody, V domains shown)
VH: B1 VH with F101Y, Y105R
VL: B2 VL with N33A, L60F, V88A
notes: Deimmunised light chain paired with the A-D5.16 VH; IgG1null

binding result [18]: binds
B7: mVH/mVL (chimeric VxP037) in human IgG1 format (antibody, V domains shown)
VH: EVQLQQFGAELVKPGASMKLSCKASGYTFTNYYVFWVKQRPGQGLEWIGDINPVNGDTNFNEKFKNKATLTVDKSSTTTYLQLSSLTSEDSAVYYCTRGGYTMDYWGQGTLVTVSS
VL: DVVMTQTPLSLSVSLGDQASISCRSSQSLVHSNGNTYLHWYLQKPGQSPKLLIYKVSYRFSGVPDRFSGSGSGTDFTLKISRVEAEDLGVYFCSQNTHVPRTFGQGTKVEIK
notes: also called mVH/mVL in IgG1
